Values belong to the molecule of their own block, whether it stands above or below them.
Columns and labels:
Format in all cases: cell-based
SSTR4 = molecular target: T1, SSTR4 (Homo sapiens, UniProt P31391); assay: PathHunter β-arrestin2-EA / GPCR-ED enzyme fragment complementation, SSTR4-ED fusion; settings: saturating ligand
T1 construct: The entire GPCR coding regions were cloned downstream of the CMV promoter and upstream of the ED; expressed in transfected cells; host or cells: HEK293 or CHOK1 cells, retroviral infection (pLNCX2)
Source text: The cells used were HEK293 and CHOK1 cells. […] The viral plasmid was the PLNCX2 vector from Clontech. The plasmid includes sufficient retroviral sequences to enable viral production in the appropriate packaging cell lines. The plasmid also includes the neomycin antibiotic resistance gene and a CMV promoter that is used to drive expression of the target ED fusion. […] The ED is fused at the intracellular terminus, i.e., C-terminus of the proteins.
Preparation of Detection Reagents—The detection reagents must be prepared as a working solution prior to use, and once prepared are stable for at least 24 hours at room temperature with no impact on assay performance. The detection reagents consist of the substrate and co-factors for chemiluminescence signal detection, as well as the reagents necessary for selective cell permeabilization. Working solution is prepared by combining PathHunter™ Cell Assay Buffer (DiscoveRx, Inc., Fremont, Calif.), Galacton Star® and Emerald II® reagent to 25 μl of cells+compound. reagents (ABI, Bedford, Mass.) at a ratio of 19:1:5.
The fourth column indicates the fold induction for each of the constructs, where saturating conditions of the ligand were employed.

CHRM2 = molecular target: T2, CHRM2 (Homo sapiens, UniProt P08172); assay: PathHunter β-arrestin2-EA / GPCR-ED enzyme fragment complementation, CHRM2-ED fusion; settings: saturating ligand
T2 construct: The entire GPCR coding regions were cloned downstream of the CMV promoter and upstream of the ED; expressed in transfected cells; host or cells: HEK293 or CHOK1 cells, retroviral infection (pLNCX2)
Source text: (§1) The following are the directions for performing the determinations of the response to inducing agents and comparing the prior art ED (pK1) to an ED of the subject invention (pK2):
(§2) The cells used were HEK293 and CHOK1 cells. Following substantially the procedures described in U.S. patent application Ser. No. 10/229,247, filed Aug. 27, 2002, and U.S. patent application Ser. No. 11/132,764 (Publication no. 2005/0287522), filed May 18, 2005, whose disclosures are specifically incorporated by reference, each of the cell lines was infected with retroviral constructs. The viral plasmid was the PLNCX2 vector from Clontech. The plasmid includes sufficient retroviral sequences to enable viral production in the appropriate packaging cell lines. The plasmid also includes the neomycin antibiotic resistance gene and a CMV promoter that is used to drive expression of the target ED fusion. […] The ED is fused at the intracellular terminus, i.e., C-terminus of the proteins.
(§3) Preparation of Detection Reagents—The detection reagents must be prepared as a working solution prior to use, and once prepared are stable for at least 24 hours at room temperature with no impact on assay performance. The detection reagents consist of the substrate and co-factors for chemiluminescence signal detection, as well as the reagents necessary for selective cell permeabilization. […]

CRTH2 = molecular target: T3, CRTH2 (Homo sapiens, UniProt Q9Y5Y4); assay: PathHunter β-arrestin2-EA / GPCR-ED enzyme fragment complementation, CRTH2-ED fusion; settings: saturating ligand
T3 construct: The entire GPCR coding regions were cloned downstream of the CMV promoter and upstream of the ED; expressed in transfected cells; host or cells: HEK293 or CHOK1 cells, retroviral infection (pLNCX2)
Source text: as §1, §2, §3

P2RY6 = molecular target: T4, P2RY6 (Homo sapiens, UniProt Q15077); assay: PathHunter β-arrestin2-EA / GPCR-ED enzyme fragment complementation, P2RY6-ED fusion; settings: saturating ligand
T4 construct: The entire GPCR coding regions were cloned downstream of the CMV promoter and upstream of the ED; expressed in transfected cells; host or cells: HEK293 or CHOK1 cells, retroviral infection (pLNCX2)
Source text: as §1, §2, §3

CCR6 = molecular target: T5, CCR6 (Homo sapiens, UniProt P51684); assay: PathHunter β-arrestin2-EA / GPCR-ED enzyme fragment complementation, CCR6-ED fusion; settings: saturating ligand
T5 construct: The entire GPCR coding regions were cloned downstream of the CMV promoter and upstream of the ED; expressed in transfected cells; host or cells: HEK293 or CHOK1 cells, retroviral infection (pLNCX2)
Source text: as §1, §2, §3

PTHR2 = molecular target: T6, PTHR2 (Homo sapiens, UniProt P49190); assay: PathHunter β-arrestin2-EA / GPCR-ED enzyme fragment complementation, PTHR2-ED fusion; settings: PTHR2 fused to PK2 ED; saturating ligand
T6 construct: The entire GPCR coding regions were cloned downstream of the CMV promoter and upstream of the ED; expressed in transfected cells; host or cells: HEK293 or CHOK1 cells, retroviral infection (pLNCX2)
Source text: as §1, §2
Preparation of Detection Reagents—The detection reagents must be prepared as a working solution prior to use, and once prepared are stable for at least 24 hours at room temperature with no impact on assay performance. The detection reagents consist of the substrate and co-factors for chemiluminescence signal detection, as well as the reagents necessary for selective cell permeabilization. Working solution is prepared by combining PathHunter™ Cell Assay Buffer (DiscoveRx, Inc., Fremont, Calif.), Galacton Star® and Emerald II® reagent […]. reagents (ABI, Bedford, Mass.) at a ratio of 19:1:5. Sufficient reagent is provided in each kit to perform the indicated number of assays in a 384-well, full-volume microplate assuming an addition of 12 μl of detection reagent per well or in a 96-well, full-volume microplate assuming an addition of 50 μl of detection reagent per well. […]

CCR4 = molecular target: T7, CCR4 (Homo sapiens, UniProt P51679); assay: PathHunter β-arrestin2-EA / GPCR-ED enzyme fragment complementation, CCR4-ED fusion; settings: saturating ligand
T7 construct: The entire GPCR coding regions were cloned downstream of the CMV promoter and upstream of the ED; expressed in transfected cells; host or cells: HEK293 or CHOK1 cells, retroviral infection (pLNCX2)
Source text: as §1, §2, §3

SALPR = molecular target: T8, SALPR (Homo sapiens, UniProt Q9NSD7); assay: PathHunter β-arrestin2-EA / GPCR-ED enzyme fragment complementation, SALPR-ED fusion; settings: saturating ligand
T8 construct: The entire GPCR coding regions were cloned downstream of the CMV promoter and upstream of the ED; expressed in transfected cells; host or cells: HEK293 or CHOK1 cells, retroviral infection (pLNCX2)
Source text: as §1, §2, §3

T6 sequence (P49190 25-550, species assumed): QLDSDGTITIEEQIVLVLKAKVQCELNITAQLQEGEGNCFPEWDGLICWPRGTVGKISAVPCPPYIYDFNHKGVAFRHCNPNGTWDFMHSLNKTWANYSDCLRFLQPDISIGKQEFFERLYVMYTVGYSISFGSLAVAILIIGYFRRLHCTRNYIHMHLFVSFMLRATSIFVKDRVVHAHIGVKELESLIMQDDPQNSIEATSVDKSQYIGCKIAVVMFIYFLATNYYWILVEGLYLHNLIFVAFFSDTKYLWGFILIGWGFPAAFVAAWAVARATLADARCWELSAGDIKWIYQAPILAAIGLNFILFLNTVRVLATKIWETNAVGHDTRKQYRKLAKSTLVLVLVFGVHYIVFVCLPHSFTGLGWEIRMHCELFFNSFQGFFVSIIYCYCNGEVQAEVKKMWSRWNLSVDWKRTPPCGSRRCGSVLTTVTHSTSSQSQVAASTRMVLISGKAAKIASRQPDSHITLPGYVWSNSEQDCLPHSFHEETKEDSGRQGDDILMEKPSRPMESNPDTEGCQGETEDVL
T6 sequence (P32121 whole entry partner, species assumed, the tested form may be a part): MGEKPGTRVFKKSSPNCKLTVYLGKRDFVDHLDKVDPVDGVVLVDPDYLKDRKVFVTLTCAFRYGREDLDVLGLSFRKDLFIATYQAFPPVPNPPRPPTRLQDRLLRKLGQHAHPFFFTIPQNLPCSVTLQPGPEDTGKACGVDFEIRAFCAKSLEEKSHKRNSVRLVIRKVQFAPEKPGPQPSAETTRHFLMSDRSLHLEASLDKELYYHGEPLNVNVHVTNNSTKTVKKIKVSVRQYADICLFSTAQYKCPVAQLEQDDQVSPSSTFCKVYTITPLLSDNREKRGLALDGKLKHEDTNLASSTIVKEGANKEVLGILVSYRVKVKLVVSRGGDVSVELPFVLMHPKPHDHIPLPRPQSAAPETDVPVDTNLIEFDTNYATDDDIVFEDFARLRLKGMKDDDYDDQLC
T3 sequence (Q9Y5Y4 whole entry, species assumed, the tested form may be a part): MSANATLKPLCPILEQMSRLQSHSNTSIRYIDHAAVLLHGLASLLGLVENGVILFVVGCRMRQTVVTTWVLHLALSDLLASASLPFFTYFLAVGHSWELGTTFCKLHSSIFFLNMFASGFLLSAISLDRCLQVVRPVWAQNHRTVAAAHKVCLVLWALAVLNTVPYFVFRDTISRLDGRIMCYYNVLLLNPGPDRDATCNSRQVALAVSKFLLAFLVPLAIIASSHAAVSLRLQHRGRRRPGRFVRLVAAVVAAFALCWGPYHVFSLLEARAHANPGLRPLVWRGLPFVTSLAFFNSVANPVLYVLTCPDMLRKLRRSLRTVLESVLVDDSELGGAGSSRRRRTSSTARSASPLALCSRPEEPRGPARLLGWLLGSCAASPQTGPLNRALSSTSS
T3 sequence (P32121 whole entry partner, species assumed, the tested form may be a part): as the sequence (P32121 whole entry partner, species assumed, the tested form may be a part) above
T5 sequence (P51684 whole entry, the tested form may be a part): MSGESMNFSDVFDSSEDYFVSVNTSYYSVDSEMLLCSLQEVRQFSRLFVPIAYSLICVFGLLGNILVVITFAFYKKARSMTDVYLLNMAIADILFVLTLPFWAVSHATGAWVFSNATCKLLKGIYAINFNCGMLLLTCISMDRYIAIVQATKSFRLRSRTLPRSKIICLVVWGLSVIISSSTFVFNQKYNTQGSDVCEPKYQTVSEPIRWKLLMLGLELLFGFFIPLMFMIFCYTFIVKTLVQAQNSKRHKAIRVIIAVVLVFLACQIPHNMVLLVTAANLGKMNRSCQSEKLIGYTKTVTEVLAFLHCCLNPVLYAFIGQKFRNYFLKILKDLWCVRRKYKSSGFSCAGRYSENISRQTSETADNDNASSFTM
T5 sequence (P32121 whole entry partner, the tested form may be a part): as the sequence (P32121 whole entry partner, species assumed, the tested form may be a part) above
T1 sequence (P31391 whole entry, species assumed, the tested form may be a part): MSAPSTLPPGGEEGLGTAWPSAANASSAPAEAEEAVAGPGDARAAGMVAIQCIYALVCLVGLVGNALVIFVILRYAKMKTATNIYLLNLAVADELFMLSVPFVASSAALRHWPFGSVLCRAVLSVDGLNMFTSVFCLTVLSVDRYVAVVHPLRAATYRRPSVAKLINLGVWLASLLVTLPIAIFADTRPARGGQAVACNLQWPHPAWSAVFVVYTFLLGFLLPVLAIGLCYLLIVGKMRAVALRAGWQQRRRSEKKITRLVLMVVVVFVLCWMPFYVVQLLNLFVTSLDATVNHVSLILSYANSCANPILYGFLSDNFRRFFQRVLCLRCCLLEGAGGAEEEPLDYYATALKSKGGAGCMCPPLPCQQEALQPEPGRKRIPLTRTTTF
T1 sequence (P32121 whole entry partner, species assumed, the tested form may be a part): as the sequence (P32121 whole entry partner, species assumed, the tested form may be a part) above
T8 sequence (Q9NSD7 whole entry, species assumed, the tested form may be a part): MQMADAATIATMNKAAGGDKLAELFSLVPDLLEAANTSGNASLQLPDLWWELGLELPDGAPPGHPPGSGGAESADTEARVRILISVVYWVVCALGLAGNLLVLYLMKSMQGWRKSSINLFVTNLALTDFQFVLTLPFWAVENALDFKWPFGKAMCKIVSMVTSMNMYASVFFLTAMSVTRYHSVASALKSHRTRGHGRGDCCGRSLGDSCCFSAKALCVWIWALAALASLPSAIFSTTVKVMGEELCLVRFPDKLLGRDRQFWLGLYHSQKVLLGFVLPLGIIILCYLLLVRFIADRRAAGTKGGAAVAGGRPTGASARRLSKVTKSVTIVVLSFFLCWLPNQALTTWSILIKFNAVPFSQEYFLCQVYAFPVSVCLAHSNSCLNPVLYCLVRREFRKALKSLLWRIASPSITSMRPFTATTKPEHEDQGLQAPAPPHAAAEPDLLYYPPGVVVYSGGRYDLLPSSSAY
T8 sequence (P32121 whole entry partner, species assumed, the tested form may be a part): as the sequence (P32121 whole entry partner, species assumed, the tested form may be a part) above
T2 sequence (P08172 whole entry, species assumed, the tested form may be a part): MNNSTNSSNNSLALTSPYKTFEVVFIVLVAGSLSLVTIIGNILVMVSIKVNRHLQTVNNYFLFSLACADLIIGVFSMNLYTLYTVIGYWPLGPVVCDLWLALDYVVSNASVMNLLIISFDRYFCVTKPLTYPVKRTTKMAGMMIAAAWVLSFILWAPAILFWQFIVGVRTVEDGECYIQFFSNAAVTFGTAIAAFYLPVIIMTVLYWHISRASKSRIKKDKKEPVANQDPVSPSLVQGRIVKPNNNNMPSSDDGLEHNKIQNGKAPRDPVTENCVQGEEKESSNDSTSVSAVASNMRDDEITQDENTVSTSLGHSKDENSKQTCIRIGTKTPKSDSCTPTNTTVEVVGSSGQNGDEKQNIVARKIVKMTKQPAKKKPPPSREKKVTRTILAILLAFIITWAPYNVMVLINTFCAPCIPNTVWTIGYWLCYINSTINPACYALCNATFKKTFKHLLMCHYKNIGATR
T2 sequence (P32121 whole entry partner, species assumed, the tested form may be a part): as the sequence (P32121 whole entry partner, species assumed, the tested form may be a part) above
T7 sequence (P51679 whole entry, the tested form may be a part): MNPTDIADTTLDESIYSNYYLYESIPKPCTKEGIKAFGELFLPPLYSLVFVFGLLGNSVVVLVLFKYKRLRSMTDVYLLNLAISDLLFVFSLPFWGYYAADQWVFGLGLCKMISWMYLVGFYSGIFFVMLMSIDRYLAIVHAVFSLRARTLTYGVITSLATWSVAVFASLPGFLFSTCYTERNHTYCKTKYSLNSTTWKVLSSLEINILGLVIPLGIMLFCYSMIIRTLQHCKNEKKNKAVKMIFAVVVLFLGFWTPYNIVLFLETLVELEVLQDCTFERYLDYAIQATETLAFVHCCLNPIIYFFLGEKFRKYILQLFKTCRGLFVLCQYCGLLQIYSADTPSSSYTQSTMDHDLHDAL
T7 sequence (P32121 whole entry partner, the tested form may be a part): as the sequence (P32121 whole entry partner, species assumed, the tested form may be a part) above
T4 sequence (Q15077 whole entry, species assumed, the tested form may be a part): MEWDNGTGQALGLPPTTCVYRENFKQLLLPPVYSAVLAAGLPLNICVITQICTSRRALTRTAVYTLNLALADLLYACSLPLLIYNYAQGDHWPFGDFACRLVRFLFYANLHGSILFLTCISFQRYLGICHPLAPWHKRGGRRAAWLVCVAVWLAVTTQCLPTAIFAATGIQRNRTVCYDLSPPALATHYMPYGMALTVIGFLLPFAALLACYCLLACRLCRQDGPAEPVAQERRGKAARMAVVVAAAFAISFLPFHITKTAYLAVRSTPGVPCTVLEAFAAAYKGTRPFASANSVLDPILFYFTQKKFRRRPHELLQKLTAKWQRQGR
T4 sequence (P32121 whole entry partner, species assumed, the tested form may be a part): as the sequence (P32121 whole entry partner, species assumed, the tested form may be a part) above

Molecule: COC(=O)[C@H](CCCN=C(N)N)NC(=O)CCCc1c(-c2ccccc2)[nH]c2c(F)cc(F)cc12 [L803,087]
Fold induct. (SSTR4; SSTR4 fused to PK1 ED): 1.8 fold | Fold induct. (SSTR4; SSTR4 fused to PK2 ED): 2.1 fold

Molecule: C[N+](C)(C)CC#CCN1CCCC1=O [Oxotremorine M]
Fold induct. (CHRM2; CHRM2 fused to PK2 ED): 6.1 fold

Molecule: O=C1CCCN1CC#CCN1CCCC1 [Oxotremorine]
Fold induct. (CHRM2; CHRM2 fused to PK1 ED): 1.6 fold

Molecule: CCCCC[C@H](O)/C=C/[C@H]1C(=O)C[C@H](O)[C@@H]1C/C=C\CCCC(=O)O [Prostaglandin D2]
Fold induct. (CRTH2; CRTH2 fused to PK1 ED): none | Fold induct. (CRTH2; CRTH2 fused to PK2 ED): 2.6 fold

Molecule: CCL20
Fold induct. (CCR6; CCR6 fused to PK1 ED): 1.4 fold | Fold induct. (CCR6; CCR6 fused to PK2 ED): 6.5 fold

Molecule: TIP39
Fold induct. (PTHR2): 2.8 fold

B1: CCL22 (protein)
chain: GPYGANMEDSVCCRDYVRYRLPLRVVKHFYWTSDSCPRPGVVLLTFRDKEICADPRVPWVKMILNKLSQ
notes: ligand employed for CCR4
Fold induct. (CCR4; CCR4 fused to PK1 ED): 18.9 fold | Fold induct. (CCR4; CCR4 fused to PK2 ED): 3 fold

Second part, the molecule after the results:

Fold induct. (P2RY6; P2RY6 fused to PK1 ED): 1.3 fold | Fold induct. (P2RY6; P2RY6 fused to PK2 ED): 1.9 fold
Molecule: O=c1ccn([C@@H]2O[C@H](COP(=O)(O)OP(=O)(O)O)[C@@H](O)[C@H]2O)c(=O)[nH]1 [UDP]

Fold induct. (PTHR2): 72.9 fold
Molecule: PTH (1-34)

Fold induct. (PTHR2): none
Molecule: PTHRP

Fold induct. (SALPR; SALPR fused to PK1 ED): none | Fold induct. (SALPR; SALPR fused to PK2 ED): 1.8 fold
B2: Relaxin-3 (protein)
chain: RAAPYGVRLCGREFIRAVIFTCGGSRWRRSDILAHEAMGDTFPDADADEDSLAGELDEAMGSSEWLALTKSPQAFYRGRPSWQGTPGVLRGSRDVLAGLSSSCCKWGCSKSEISSLC
notes: ligand employed for SALPR
